# Assay results from patent publication US20100297734, “Fusion Tag Comprising an Affinity Tag and an EF-Hand Motif Containing Polypeptide and Methods of Use Thereof” (University Health Network, published 2010).
# B1: p53 icosamer recognition sequence (dsDNA)
# DNA 1: AGGCATGTCTAGGCATGTCT
# DNA 2: AGACATGCCTAGACATGCCT
# Biological target: p53(1-360) (Homo sapiens, UniProt P04637 P04637:1-360)
# Test: EMSA; 0.10 nM DNA, 12 uM p53(1-360), PBS, 25 C, 2 ug poly(dI-dC) competitor, 1 h; 6% gel in TBM
# Settings: tags: HiCaM tag (His6-calmodulin) removed by thrombin; expressed in E. coli BL21(DE3)Star; chain copies: 4 inferred; label: 32P
# Procedure: Functional Assays of purified, untagged constructs—The excitation and emission spectra (excited at 488 nm) of eGFP were recorded from 300 to 700 nm at 25° C. in a Fluoromax-3 Spectrofluorometer. For p53(1-360), a ³²P-labelled restriction fragment harbouring an icosamer recognition sequence (5′-[…]-3′ (SEQ ID NO:6)) (0.10 nM) was incubated alone, with 50 ng/μL BSA or 12 μM p53(1-360) in PBS at 25° C. with 2 μg poly(dI-dC)˜poly(dl-dC) for 1 hour before separation in a 6% polyacrylamide gel in TBM buffer at 25 V/cm. The gel was then exposed to a phosphor screen for 1 hour and imaged in a Typhoon® Phosphorimager (GE Healthcare). Human p53(1-360) (7 μM) was also crosslinked with 0.125% glutaraldehyde at 25° C. for 12 min. and separated on SDS-PAGE, followed by Coomassie Blue staining (Poon et al. 2007).
# p53(1-360), sequence (P04637 1-360, one chain of several): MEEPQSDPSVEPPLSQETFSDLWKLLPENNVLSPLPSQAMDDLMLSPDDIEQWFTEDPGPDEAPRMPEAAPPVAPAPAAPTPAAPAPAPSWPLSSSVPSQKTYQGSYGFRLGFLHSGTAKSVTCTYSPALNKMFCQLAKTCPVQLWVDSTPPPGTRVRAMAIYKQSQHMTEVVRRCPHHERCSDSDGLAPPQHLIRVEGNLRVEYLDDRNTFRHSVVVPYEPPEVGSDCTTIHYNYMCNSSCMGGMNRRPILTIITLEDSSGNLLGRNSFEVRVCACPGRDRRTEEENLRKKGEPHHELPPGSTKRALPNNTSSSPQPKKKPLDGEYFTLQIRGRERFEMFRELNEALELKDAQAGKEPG
binder,measurement,value
B1,binding result,binds
